Data: patent US20140329228A1 (Ushio Denki Kabushiki Kaisha, priority 2011, published 2014)

Legend:
Assay type in all cases: binding
[1] = Fluorescence enhancement of fluoro-labeled Fab complex / scFv with methamphetamine; details: antigen Methamphetamine 100 μg/mL versus absence of antigen
[2] = Fluorescence enhancement of fluoro-labeled Fab complex with MDA; details: antigen MDA 100 μg/mL versus absence of antigen
[3] = Fluorescence enhancement of fluoro-labeled Fab complex / scFv with cocaine; details: antigen Cocaine 100 μg/mL versus absence of antigen
[4] = Fluorescence enhancement of fluoro-labeled Fab complex / scFv with ketamine; details: antigen Ketamine 100 μg/mL versus absence of antigen
[5] = Fluorescence enhancement of fluoro-labeled Fab complex / scFv with morphine; details: antigen Morphine 100 μg/mL versus absence of antigen
[6] = Fluorescence enhancement of fluoro-labeled Fab complex with MDMA; details: antigen MDMA 100 μg/mL versus absence of antigen
[7] = Fluorescence enhancement of fluoro-labeled Fab complex with amphetamine; details: antigen Amphetamine 100 μg/mL versus absence of antigen

B1: Anti-Methamphetamine: same-color double-label Fab complex of anti-methamphetamine antibody; TAMRA-labeled VL (SEQ ID NO: 25) and VH (SEQ ID NO: 26) (antibody, V domains shown)
VH: QVQLQQSGPELVKPGASVKVSCKASGYPSTRFYIYWVKQSHGKSLEWIGNIDPYNGGTTYNQKFKGKATLTIDKSSTTAYVHLNSLTSEDSAVYYCAGFHYSGQLDTDVWGAGTKVTVSS
VL: DIVMTQSPAFMSASPGEKVTLTCSASSSVSSTFLYWYQQKPGSSPKLWIYSTSNLASGVPSRFSGSGSGTSYSLTINSMEAEDAASYFCHQWSNYPFTFGSGTKLEIKR
modifications: Fab; TAMRA labels; Meth-VH-26; Meth-VL-25
[1]
  Fluorescence enhancement in the presence of 100 μg/mL antigen: 7.2
[2]
  Fluorescence enhancement in the presence of 100 μg/mL antigen: 5.6
[3]
  Fluorescence enhancement in the presence of 100 μg/mL antigen: 1.0
[4]
  Fluorescence enhancement in the presence of 100 μg/mL antigen: 1.0
[5]
  Fluorescence enhancement in the presence of 100 μg/mL antigen: 0.9
[6]
  Fluorescence enhancement in the presence of 100 μg/mL antigen: 7.2
[7]
  Fluorescence enhancement in the presence of 100 μg/mL antigen: 6.8
